Measurements taken from patent US6809076B2, “Use of anticoagulant agents in the extracorporeal treatment of blood” (Abbott GmbH & Co. KG, priority 2000, dated 2004).
Marks after values point to notes of the source that are not given here. PEG = not defined here

Experiments:
plasma fibrin formation = experiment: APTT determination in dialysis patients; assay type: in vivo, human
Protocol: The determination of the activated partial thromboplastin time (APTT) is based on plasma fibrin formation induced by addition of a partial thromboplastin (Actin FS) and calicum [sic] ions to the plasma. Ellagic acid is used as activator.
The sample volume is at least 450 μl.
The controls used are control plasma in the normal range, control plasma in the therapeutic range, control plasma in the low therapeutic range and a quality control in the normal range, for example the controls commercially available from Dade citrol 1, Citrol 2, Citrol 3 and Coag Trol N.
The measurement is carried out in an ACL 3000.
The ACL 3000 is a completely automatic, microcomputer-controlled centrifugal analysis system. After the start of the analysis cycle, sample and Actin are pipetted separately into the half-cuvettes of a reaction rotor made of acrylic glass with 20 cuvettes, and are mixed and then incubate d. After the incubation, calcium chloride is pipetted into the cuvettes, mixed and measured. Measurements are carried out while the rotor is rotating. The light source for the nephelometric measurement is a light-emitting diode (LED) whose light beam is directed via a light guide system (γ=660 nm) onto the measuring cuvettes. The scattered light distribution is measured at an angle of 90° to the light source with the aid of a semiconductor sensor located underneath the rotor carrier. The measured results can also be stated as ratio and describe the ratio of the current value to the individual baseline value for a patient before the dialysis with PEG-hirudin.
The accuracy of measurement is +10% to −10%.

thrombin [1] = conditions: human, in vivo, iv, 0.08 mg/kg
Protocol: (§1) 20 male and female patients between 18 and 75 years who must regularly undergo hemodialysis were selected. After an initial treatment with heparin (UFH), each patient was given an intravenous injection, immediately before the first dialysis during PEG-hirudin treatment, of a dose of 0.08 mg/kg of PEG-hirudin with a specific antithrombin activity of 13,354 ATU/mg of protein per kg of body weight. This was followed by hemodialysis with an average duration of 4 hours, 3×a week using a Hemophan low flux membrane in a GFS plus 16 dialyzer. When the dialysis was complete and before the subsequent dialysis sessions, firstly the PEG-hirudin concentrations in the patient's blood were determined. The measured values served as the basis for the amount of the PEG-hirudin doses to be administered immediately before each hemodialysis.
Determination of the anti-IIa activity is based on measurement of the activity remaining after addition of excess thrombin to the sample. Heparin and other non-thrombin serine proteases are neutralized before the assay by adding prothamine [sic] chloride and aprotinin to the sample. […]
The measurement is carried out in an ACL 3000 (incubation time: 120 s; inter-ramp interval: 3 s; delay time: 3 s; aquisition time: 120 s; speed: 600 rpm). The extinction is measured using a 405 nm filter at a constant rotor speed. […]

vascular complications = experiment: Prophylaxis of vascular complications between hemodialysis sessions; assay type: in vivo, human; conditions: residual concentration in blood between the hemodialysis sessions, 20 patients
Protocol: as §1

meizothrombin = molecular target: T1, meizothrombin (Homo sapiens, UniProt P00734); experiment: ECT (ecarin clotting time) determination in dialysis patients; assay type: in vivo
T1 construct: produces meizothrombin by cleavage of the prothromin in the plasma; from tissue; host or cells: citrated venous blood/plasma of human dialysis patients
Protocol: Determination of the ECT (ecarin clotting time) is based on the inhibition of the coagulation activity of meizothrombin. Ecarin, a purified fraction of Echis carinatus venom, produces meizothrombin by cleavage of the prothromin in the plasma. The time until fibrinogen coagulates induced by ecarin is measured.
The sample volume is about 100 μl.
Standard E: [c]=2500 ng/ml (1:20 dilution of standard C with normal human citrated plasma)
The measured results can also be stated as ratio and describe the ratio of the current value to the individual baseline value for a patient before the dialysis with PEG-hirudin.
The accuracy of measurement is +30% to −10%.

thrombin [2] = molecular target: thrombin (Homo sapiens, UniProt P00734); experiment: Specific antithrombin activity (ATU, WHO I thrombin standard); assay type: biochemical
Description: The blood levels described above can usually be obtained with bolus doses in the range from about […] to about 1400 ATU/kg, preferably from about 400 ATU/kg to about 1200 ATU/kg and, in particular, from about 600 ATU/kg to about 1000 ATU/kg, of body weight. After adaptation it is possible to treat individuals with chronic renal insufficiency, with an average of three exracorporeal circulations a week, with a dosage of about 200 to about 1000 ATU/kg, preferably of about 200 ATU/kg to about 800 ATU/kg and, in particular, from about 400 ATU/kg to about 600 ATU/kg, of body weight. The abbreviation ATU stands for antithrombin units bas ed on the WHO I thrombin standard.

[3] = dialysis 04, first with PEG-hirudin (0.08 mg/kg i.v.)
[4] = dialysis 05, PEG-hirudin i.v. before each dialysis
[5] = dialysis 06, PEG-hirudin i.v. before each dialysis
[6] = dialysis 07, PEG-hirudin i.v. before each dialysis
[7] = dialysis 08, PEG-hirudin i.v. before each dialysis
[8] = dialysis 09, PEG-hirudin i.v. before each dialysis
[9] = dialysis 10, PEG-hirudin i.v. before each dialysis
[10] = dialysis 11, PEG-hirudin i.v. before each dialysis
[11] = dialysis 12, PEG-hirudin i.v. before each dialysis
[12] = dialysis 13, PEG-hirudin i.v. before each dialysis

B1: PEG-hirudin: polyethylene glycol conjugates of hirudin; preferably SEQ ID NO:1 polypeptide with PEG residues on lysine 27 and lysine 33 (conjugate)
chain: VVYTDCTESGQNLCLCEGSNVCGQGNK(PEG)CILGSK(PEG)GERNQCVTGEGTPRPQSHNDGDFEEIPEEYLQ
modifications: ends and bridges not checked
Plasma fibrin formation; [3]
  APTT After dialysis: 2.2 ratio
  APTT Bolus 5' after admin.: 2.5 ratio
Plasma fibrin formation; dialysis 04, first with PEG-hirudin (0.08 mg/kg i.v.), before dose
  APTT Before dialysis: 1.0 ratio
Plasma fibrin formation; [4]
  APTT After dialysis: 2.3 ratio
  APTT Before dialysis: 1.7 ratio
Plasma fibrin formation; [5]
  APTT After dialysis: 2.3 ratio
  APTT Before dialysis: 1.9 ratio
Plasma fibrin formation; [6]
  APTT After dialysis: 2.2 ratio
  APTT Before dialysis: 1.9 ratio
Plasma fibrin formation; [7]
  APTT After dialysis: 2.5 ratio
  APTT Before dialysis: 2.0 ratio
  APTT Bolus 5' after admin.: 2.6 ratio
Plasma fibrin formation; [8]
  APTT After dialysis: 2.4 ratio
  APTT Before dialysis: 2.0 ratio
Plasma fibrin formation; [9]
  APTT After dialysis: 2.3 ratio
  APTT Before dialysis: 2.0 ratio
Plasma fibrin formation; [10]
  APTT After dialysis: 2.3 ratio
  APTT Before dialysis: 2.0 ratio
Plasma fibrin formation; [11]
  APTT After dialysis: 2.3 ratio
  APTT Before dialysis: 2.0 ratio
Plasma fibrin formation; [12]
  APTT After dialysis: 2.2 ratio
  APTT Before dialysis: 1.9 ratio
  APTT Bolus 5' after admin.: 2.5 ratio
Thrombin [1]
  Anti-IIa After dialysis: 818 ng/mL
Thrombin [1]; 5 min
  Anti-IIa Bolus 5' after admin.: 1298 ng/mL
Vascular complications
  prophylactic protection against vascular complications: ensured prophylactic protection against vascular complications
meizothrombin; [3]
  ECT Bolus 5' after admin.: 3.0 [s] [ratio]
meizothrombin; [7]
  ECT Bolus 5' after admin.: 3.1 [s] [ratio]
meizothrombin; [12]
  ECT Bolus 5' after admin.: 3.1 [s] [ratio]
Thrombin [2]; PEG-hirudin given to the patients
  specific antithrombin activity: 13,354 ATU/mg of protein
Thrombin [2]; Standard A, 26.6 mg/ml
  specific activity: 11,696 ATU/mg of protein
